Measured values reported in publication PMC9365860 (Cell Reports, 2022).

Target: Recombinant stabilized SARS-CoV-2 spike for ELISA (Wuhan) (SARS-CoV-2, Wuhan, UniProt P0DTC2, stabilised)
Assay: ELISA
Details: both partners purified

B1: P008_60 IgG (antibody, V domains shown)
VH: EVQLVESGGGVVQPGRSLRLTCAASGFIFSSYGMHWVRQAPGKGLEWVAVISYDGSYKYYADSVKGRFTISRDNSKNTLYLQMNSLRAEDTAVYYCTKADYYDFWSGYQKTYYYYMDVWGKGTTVTISS
VL: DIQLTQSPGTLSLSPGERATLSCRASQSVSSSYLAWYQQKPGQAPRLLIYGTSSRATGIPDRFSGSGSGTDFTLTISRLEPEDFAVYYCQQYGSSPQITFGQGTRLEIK
notes: also called mAb P008_60; P008_060; source: HEK-293F, co-transfected heavy and light plasmids, purified (protein G)
binding result: binds
